Data taken from patent publication US20240279618A1, “RECEPTOR TYROSINE KINASE AGONIST, COMPOSITION FOR CELL CULTURE MEDIUM, AND […] MAINTENANCE COMPOSITION” (SEKISUI CHEMICAL CO., LTD., priority 2021, published 2024).

B1: #1-L4-#1: dimer of VHH #1 with linker L4 (GSEGKSSGSGSESKST), SEQ ID NO: 23 (protein)
VHH: QLQLVESGGGSVQAGGSLRLSCAASRSLSRFNVWTWYRQAPVKQRELVASITKSGDTNYAESVKGRFIISRDDDKNTVYLQMNNLKSEDTGIYYCAGSYYSGSYLYPSPGGFSVWGQGTQVTVSSGSEGKSSGSGSESKSTQLQLVESGGGSVQAGGSLRLSCAASRSLSRFNVWTWYRQAPVKQRELVASITKSGDTNYAESVKGRFIISRDDDKNTVYLQMNNLKSEDTGIYYCAGSYYSGSYLYPSPGGFSVWGQGTQVTVSS
modifications: #1-L4-#1
B2: VHH Clone #1: alpaca-derived VHH single-domain antibody (monomer) binding FGFR1, amino acid sequence SEQ ID NO: 17 (protein)
VHH: QLQLVESGGGSVQAGGSLRLSCAASRSLSRFNVWTWYRQAPVKQRELVASITKSGDTNYAESVKGRFIISRDDDKNTVYLQMNNLKSEDTGIYYCAGSYYSGSYLYPSPGGFSVWGQGTQVTVSS
modifications: VHH_Clone_#1

What was measured:
[1] = test system: human bone marrow-derived MSC; assay: MSC culture: evaluation of cell growth and morphology; type: cell-based; design: key to P3 Growth rate / P4 Growth rate / P5 Growth rate: cells per well at passage divided by cells at seeding; details: for P2 Count (3-well) / P2 Growth rate / P3 Count (3-well) / P3 Growth rate / P4 Count (3-well) / P4 Growth rate / P5 Count (3-well) / P5 Growth rate / cumulative number of cells (average value), P1 / cumulative number of cells (average value), P2 / cumulative number of cells (average value), P3 / cumulative number of cells (average value), P4 / cumulative number of cells (average value), P5 / P1 Count (2-well): MSC, 20 ng/mL; for cumulative number of cells (average value), P1: culture day 5; for cumulative number of cells (average value), P2: culture day 10; for cumulative number of cells (average value), P3: culture day 15; for cumulative number of cells (average value), P4: culture day 20; for cumulative number of cells (average value), P5: culture day 25; for growth performance of MSC (cumulative number of cells): regardless of the FBS concentration (10% or 20%); for morphology of MSC: 4 passages, Day 1
Procedure: 10 mL of a used portion of D-MEM medium (Low Glucose, Glutamine) (Fujifilm Wako Pure Chemical Corporation, C/N: 041-29775) was added to a 15 mL PP tube, and warmed in a thermostatic water tank (set at 37° C.). A human bone marrow-derived MSC (Stemcell Technologies, C/N: 70022) stock tube preserved in a liquid nitrogen gas phase was taken out from a liquid nitrogen container and thawed in a thermostatic water tank (set at 37° C.). Thereafter, the cells were rapidly moved with a pipette into the tube (including 10 mL of the medium) that had been heated to 37° C. in a clean bench, and mixed by pipetting. The tube was centrifuged (300× g, 5 minutes) and the supernatant was removed with an aspirator.
An appropriate amount of D-MEM that had been warmed to room temperature was added to a cell pellet and mixed, and then the number of cells was evaluated with a cell counter. An appropriate amount of the cell suspension was taken into a 15 mL PP tube and centrifuged (300× g, 5 minutes). The supernatant was removed, an appropriate amount of D-MEM (containing 10% or 20% of FBS (Thermo Fisher Scientific Inc., 16140071); the stock was preserved under refrigeration and used within 2 weeks) was added to a cell pellet to adjust a cell suspension (1).
The number of cells was evaluated again with a cell counter and the cells were appropriately diluted with each of the media. Next, a stock of basic FGF or VHH was added to the cell suspension (1), so that each of the final concentrations was 1 ng/ml or ng/mL. Seeding was performed onto a CellBIND 6-well plate (Coming, C/N: 3335) at a density of 3-5×10^4/well, and after 2 to 4 days, medium exchange was performed using D-MEM (containing 10% FBS or 20% FBS).
The cells were observed under a microscope, and basically, passage was carried out after 5 days from seeding. In advance, the used D-MEM (0% FBS, 10% FBS, or 20% FBS) was warmed in advance in a thermostatic water tank (set at 37° C.). After washing the cells with D-PBS, 500 μL of TrypLE Express was added thereto and the cells were left to stand in a CO2 incubator. After 5 to 10 minutes, the culture container was removed from the CO2 incubator, and a change in cell morphology was confirmed under a microscope. Thereafter, 1 mL of D-MEM was added to each well, and the cells were released by pipetting, suspended, and then recovered in a 15 mL PP tube.
The tube was centrifuged (300× g, 5 minutes) and the supernatant was removed with an aspirator. An appropriate amount of a D-MEM medium (containing 10% FBS or 20% FBS) was added to the cell pellet, and mixed by pipetting. A part of the cell suspension was collected and the number of cells was evaluated with a cell counter. After counting the […] in each well, the cell suspensions in the same group were collected in one tube and mixed together. The average value of individual wells was used to calculate the number of cells at the time of passage.
The cell suspension was appropriately diluted with D-MEM (10% FBS or 20% FBS). The cells were seeded on a new CellBIND 6-well plate at […] cells/well. Furthermore, one well was adjusted to 2 mL/well. After 2 to 4 days, medium exchange was performed with a medium at room temperature.
The average value of the counts of number of cells per well acquired during the passage was used to create a cell growth straight line. In addition, a value obtained by dividing the number of cells per well at the time of passage by the number of cells at the time of seeding was defined as a growth rate during that period, and the rate was used at the time of calculating a cumulative number of cells. In a case in which the number of cells per well at the time of initial seeding is defined as P(0) and the time of the N^th passage is defined as P(N), the cumulative number of cells at each passage is determined by the following calculation equation. […]

[2] = Thermal stability by protein thermal shift assay (SYPRO Orange); type: physicochemical; details: 0.5 mg/mL in D-PBS, 25° C. to 95° C., 1° C./min
Procedure: The Td is evaluated by a Td value at the time of raising the temperature from 25° C. to 95° C. (temperature rising rate: 1° C./min) under the solution conditions of a protein concentration (0.5 mg/mL) in a D-PBS solution (including 0.2 g of KH2PO4, 1.15 g of Na2HPO4, 0.2 g of KCl, and 8 g of NaCl per liter of the aqueous solution, pH 7.4).
The thermal stability of VHH was measured by a protein thermal shift assay method.
In order to confirm the thermal stability of the VHH monomer Clone #1 and the tandem dimer #1L4, the denaturation temperature (Td) was measured by a protein thermal shift assay method. […] In addition, in order to measure the fluorescence background, a control including no protein was also prepared at the same time, and dispensed into an 8-strip PCR tube (manufactured by Nippon Genetics Co., Ltd.). This tube was set in a real-time PCR measuring device, QuantStudio 3 (manufactured by Thermo Fisher Scientific, Inc.), and a change in fluorescence intensity in a range of 25° C. to 95° C. was measured under the condition of 1° C./min using a fluorescence filter for ROX measurement. After the measurement, Td was calculated using the value obtained by subtracting the background value from the measured value.

[3] = FBS 10%, cells at passage divided by cells at seeding
[4] = FBS 10%, number of cells (average value) at passage P1

Molecule | P2 Count (3-well) ([1]; FBS 10%) | P2 Growth rate [1, 3] | P3 Count (3-well) ([1]; FBS 10%) | P3 Growth rate ([1]; FBS 10%) | P4 Count (3-well) ([1]; FBS 10%) | P4 Growth rate ([1]; FBS 10%) | P5 Count (3-well) ([1]; FBS 10%) | P5 Growth rate ([1]; FBS 10%) | cumulative number of cells (average value), P1 ([1]; FBS 10%) | cumulative number of cells (average value), P2 ([1]; FBS 10%) | cumulative number of cells (average value), P3 ([1]; FBS 10%) | cumulative number of cells (average value), P4 ([1]; FBS 10%) | cumulative number of cells (average value), P5 ([1]; FBS 10%) | P1 Count (2-well) [1, 4] | P1 Count (2-well) ([1]; FBS 20%, P1) | P2 Count (3-well) ([1]; FBS 20%) | P2 Growth rate ([1]; FBS 20%) | P3 Count (3-well) ([1]; FBS 20%) | P3 Growth rate ([1]; FBS 20%) | P4 Count (3-well) ([1]; FBS 20%) | other results
FGF2: fibroblast growth factor (basic), human, recombinant (154aa), positive control; SEQ ID NO: 58 [reference compound] | 3.6E+05 | 7.2 | 3.5E+05 | 7.0 | 3.0E+05 | 6.0 | 2.0E+05 | 3.9 | 6.8E+05 | 4.9E+06 | 3.4E+07 | 2.1E+08 | 8.1E+08 | 6.8E+05 | 1.2E+06 | 5.3E+05 | 10.7 | 6.6E+05 | 13.2 | 5.5E+05 | P4 Growth rate ([1]; FBS 20%): 10.9; P5 Count (3-well) ([1]; FBS 20%): 3.6E+05; P5 Growth rate ([1]; FBS 20%): 7.2; cumulative number of cells (average value), P1 ([1]; FBS 20%): 1.2E+06; cumulative number of cells (average value), P2 ([1]; FBS 20%): 1.3E+07; cumulative number of cells (average value), P3 ([1]; FBS 20%): 1.7E+08; cumulative number of cells (average value), P4 ([1]; FBS 20%): 1.8E+09; cumulative number of cells (average value), P5 ([1]; FBS 20%): 1.3E+10; growth performance of MSC (cumulative number of cells) [1]: almost the same growth performance
B1 | 4.3E+05 | 8.5 | 3.7E+05 | 7.5 | 2.9E+05 | 5.8 | 2.2E+05 | 4.3 | 6.3E+05 | 5.4E+06 | 4.0E+07 | 2.3E+08 | 1.0E+09 | 6.3E+05 | 1.3E+06 | 8.4E+05 | 16.7 | 6.9E+05 | 13.7 | 4.9E+05 | denaturation temperature (Td) [2]: 75.4 °C; morphology of MSC ([1]; 10% FBS, low concentration (1 ng/mL)): flattened morphology; morphology of MSC ([1]; 20% FBS): same morphology was exhibited regardless of the addition concentration; P4 Growth rate ([1]; FBS 20%): 9.7; P5 Count (3-well) ([1]; FBS 20%): 4.3E+05; P5 Growth rate ([1]; FBS 20%): 8.7; cumulative number of cells (average value), P1 ([1]; FBS 20%): 1.3E+06; cumulative number of cells (average value), P2 ([1]; FBS 20%): 2.1E+07; cumulative number of cells (average value), P3 ([1]; FBS 20%): 2.9E+08; cumulative number of cells (average value), P4 ([1]; FBS 20%): 2.8E+09; cumulative number of cells (average value), P5 ([1]; FBS 20%): 2.4E+10; growth performance of MSC (cumulative number of cells) [1]: almost the same growth performance
B2 |  |  |  |  |  |  |  |  |  |  |  |  |  |  |  |  |  |  |  |  | denaturation temperature (Td) [2]: 74.1 °C
